Data taken from US20210047402A1 (published 2021).

Target: T1, human CD22 (human, UniProt P20273 20-687)
Assay: BLI
Outline: (§1)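 Affinity for human CD22 protein was measured by biolayer interferometry on an Octet QK-384 with anti-human IgG Fc capture biosensors, in 1×PBS, 0.1% BSA, 0.02% Tween-20, pH 7.2. Heavy chain-only antibodies were loaded at 5 μg/mL for 120 seconds, then dipped into a 7-point 1:2 dilution series of CD22 starting at 250 nM, with a buffer-only reference well. Kd was derived as koff/kon from a 1:1 binding model fit in Octet Data Analysis v9.0.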

T1 sequence (P20273 20-687): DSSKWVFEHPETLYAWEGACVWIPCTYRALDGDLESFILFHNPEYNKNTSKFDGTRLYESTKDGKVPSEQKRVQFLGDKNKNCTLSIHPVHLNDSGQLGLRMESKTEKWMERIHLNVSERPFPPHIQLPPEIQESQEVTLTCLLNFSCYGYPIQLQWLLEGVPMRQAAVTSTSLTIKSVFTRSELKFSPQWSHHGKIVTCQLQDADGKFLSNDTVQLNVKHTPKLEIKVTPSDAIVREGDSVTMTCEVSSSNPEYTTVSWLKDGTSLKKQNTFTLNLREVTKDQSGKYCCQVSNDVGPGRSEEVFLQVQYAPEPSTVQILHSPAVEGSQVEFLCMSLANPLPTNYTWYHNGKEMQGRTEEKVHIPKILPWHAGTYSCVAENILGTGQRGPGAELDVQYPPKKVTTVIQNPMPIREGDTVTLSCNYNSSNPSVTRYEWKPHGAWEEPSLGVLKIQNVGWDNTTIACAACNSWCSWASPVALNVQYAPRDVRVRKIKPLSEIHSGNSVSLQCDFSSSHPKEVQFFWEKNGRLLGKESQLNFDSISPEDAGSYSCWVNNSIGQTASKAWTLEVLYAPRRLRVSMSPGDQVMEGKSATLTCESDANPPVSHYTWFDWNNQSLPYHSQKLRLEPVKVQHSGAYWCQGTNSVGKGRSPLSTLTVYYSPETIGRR

Row | Binder | Kd
1 | anti-CD22 heavy chain-only antibody Clone ID 335218 (antibody, V domains shown) VH: QLQLQESGPGLVKPSETLSLTCTVSGDSISSGDYYWGWIRQPPGKGLEWIGHIYYSGATYYNPSLKNRVTISVDTSRNQFSLKLSSVTAADTAVYYCTREDSSNWRSRGQGTLVTVSS | 8.91 nM
2 | anti-CD22 heavy chain-only antibody Clone ID 335203 (antibody, V domains shown) VH: QLQLQESGPGLVKPSETLSLTCTVSGDSISSGDYYWGWIRQPPGKGLEWIGHIYYSGVTYYNPSLKNRVTISVDTSKNQFSLKLSSVTAADTAVYYCTREDSSNWRSRGQGTLVTVSS | 6.8 nM
3 | anti-CD22 heavy chain-only antibody Clone ID 335244 (antibody, V domains shown) VH: QLQLQESGPGLVKPSETLSLTCTVSGDSISSGDYYWGWIRQPPGKGLEWIGHIYYSGATYYNPSLKNRVTISVDTSRNQFSLNLSSVTAADTAVYYCTREDSSSWRSRGQGTLVTVSS | 5.07 nM
4 | anti-CD22 heavy chain-only antibody Clone ID 335254 (antibody, V domains shown) VH: QLQLQESGPGLVKPSETLSLTCTVSGDSISSGDYYWGWIRQPPGKGLEWIGHIYYSGVTYYNPSLKNRVTISVDTSKNQFSLKLSSVTAADTAVYYCTREDSSSWRSRGQGTLVTVSS | 2.83 nM
5 | anti-CD22 heavy chain-only antibody Clone ID 335158 (antibody, V domains shown) VH: QLQLQESGPGLVKPSETLSLTCTVSGGSISSGDYYWGWIRQPPGKGLEWIGHIYYSGATYYNPSLKNRVTISVDTSRNQFSLKLSSVTAADTAVYYCTRDDSSNWRSRGQGTLVTVSS | 42.3 nM
6 | anti-CD22 heavy chain-only antibody Clone ID 335154 (antibody, V domains shown) VH: QLQLQESGPGLVKPSETLSLTCTVSGDSISSGDYYWGWIRQPPGKGLEWIGHIYYSGVTYYNPSLKNRVTISVDTSKNQFSLKLSSVTAADTAVYYCTRDDSSNWRSRGQGTLVTVSS | 5.41 nM
7 | anti-CD22 heavy chain-only antibody Clone ID 335160 (antibody, V domains shown) VH: QLQLQESGPGLVKPSETLSLTCTVSGDSISSGDYYWGWIRQPPGKGLEWIGSIYYSGATYYNPSLKNRVTISVDTSKNQFSLKLSSVTAADTAVYYCTRDDSSNWRSRGQGTLVTVSS | 8.51 nM
8 | anti-CD22 heavy chain-only antibody Clone ID 335271 (antibody, V domains shown) VH: QLQLQESGPGLVKPSETLSLTCTVSGDSISSGDYYWGWIRHPPGKGLEWIGHIYYSGATYYNPSLKNRVTISVDTSKNQFSLKLSSVTAADTAVYYCTREDSSSWRSRGQGTLVTVSS | 21.6 nM
9 | anti-CD22 heavy chain-only antibody Clone ID 335323 (antibody, V domains shown) VH: QLQLQESGPGLVKPSETLSLTCTVSGDSISSGGYYWGWIRQPPGKGLEWIGSIYYSGSTYYNPSLKNRVTISVDTSKNQFSLKLSSVTAADTAVYYCTREDSSSWRSRGQGTLVTVSS | 14.1 nM
10 | anti-CD22 heavy chain-only antibody Clone ID 335245 (antibody, V domains shown) VH: QLQLQESGPGLVKPSETLSLTCTVSGDSISSGDYYWGWIRQPPGKGLEWIGHIYYSGATYYNPSLKNRVTISVDTSKNQFSLKLSSVTAADTAVYYCTREDSSSWRSRGQGTLVTVSS | 7.44 nM
11 | anti-CD22 heavy chain-only antibody Clone ID 335234 (antibody, V domains shown) VH: QLQLQESGPGLVKPSETLSLTCTVSGDSISSGDYYWGWIRQPPGKGLEWIGNIYYSGATYYNPSLKNRVTISVDTSKNQFSLKLSSVTAADTAVYYCTREDSSNWRSRGQGTLVTVSS | 12.4 nM
12 | anti-CD22 heavy chain-only antibody Clone ID 335207 (antibody, V domains shown) VH: QLQLQESGPGLVKPSETLSLTCTVSGDSISSGDYYWGWIRQPPGKGLEWIGHIYYSGVTYYNPSLKSRVTISVDTSRNQFSLKLSSVTAADTAVYYCTREDSSNWRSRGQGTLVTVSS | 3.24 nM
13 | anti-CD22 heavy chain-only antibody Clone ID 335206 (antibody, V domains shown) VH: QLQLQESGPGLVKPSETLSLTCTVSGDSISSGDYYWGWIRQPPGKGLEWIGHIYYSGATYYNPSLKNRVTISVDTSKNQFSLKLSSVTAADTAVYYCTREDSSNWRSRGQGTLVTVSS | 7.53 nM
14 | anti-CD22 heavy chain-only antibody Clone ID 335307 (antibody, V domains shown) VH: QLQLQESGPGLVKPSETLSLTCTVSGDSISSGDYYWGWIRQPPGKGLEWIGSIYYSGSTYYNPSLKSRVTISVDTSKNQFSLKLSSVTAADTAVYYCTREDSSSWRSRGQGTLVTVSS | 10.3 nM
15 | anti-CD22 heavy chain-only antibody Clone ID 335260 (antibody, V domains shown) VH: QLQLQESGPGLVKPSETLSLTCTVSGDSISSGDYYWGWIRQPPGKGLEWIGHIYYSGVTYYNPSLKNRVTISVDTSRNQFSLNLSSVTAADTAVYYCTREDSSSWRSRGQGTLVTVSS | 3.17 nM

The remaining lines, values ahead:

Row | Kd | Binder
16 | 2.66 nM | anti-CD22 heavy chain-only antibody Clone ID 335161 (antibody, V domains shown) VH: QLQLQESGPGLVKPSETLSLTCTVSGDSISSGDYYWGWIRQPPGKGLEWIGHIYYSGATYYNPSLENRVTISVDTSKNQFSLKLSSVTAADTAVYYCTRDDSSNWRSRGQGTLVTVSS
17 | 9.44 nM | anti-CD22 heavy chain-only antibody Clone ID 335181 (antibody, V domains shown) VH: QLQLQESGPGLVKPSETLSLTCTVSGDSISSGGYYWGWIRQPPGKGLEWIGHIYYSGATYYNPSLKNRVTISVDTSKNQFSLKLSSVTAADTAVYYCTRDDSSNWRSRGQGTLVTVSS
18 | 4.62 nM | anti-CD22 heavy chain-only antibody Clone ID 335176 (antibody, V domains shown) VH: QLQLQESGPGLVKPSETLSLTCTVSGDSISSGDYYWGWIRQPPGKGLEWIGHIYYSGATYYNPSLKNRVTISVDTSKNQFSLKLSSVTAADTAVYYCTRDDSSNWRSRGQGTLVTVSS
19 | 5.27 nM | anti-CD22 heavy chain-only antibody Clone ID 335261 (antibody, V domains shown) VH: QLQLQESGPGLVKPSETLSLTCTVSGDSISSGDYYWGWIRQPPGKGLEWIGHIYYSGATYYNPSLENRVTISVDTSKNQFSLKLSSVTAADTAVYYCTREDSSSWRSRGQGTLVTVSS
20 | 12.6 nM | anti-CD22 heavy chain-only antibody Clone ID 335301 (antibody, V domains shown) VH: QLQLQESGPGLVKPSETLSLTCTVSGDSISSGDYYWGWIRQPPGKGLEWIGNIYYSGATYYNPSLKNRVTISVDTSKNQFSLKLSSVTAADTAVYYCTREDSSSWRSRGQGTLVTVSS
21 | 6.5 nM | anti-CD22 heavy chain-only antibody Clone ID 335170 (antibody, V domains shown) VH: QLQLQESGPGLVKPSETLSLTCTVSGDSISSGDYYWGWIRQPPGKGLEWIGHIYYSGATYYNPSLKNRVTISVDTSRNQFSLKLSSVTAADTAVYYCTRDDSSNWRSRGQGTLVTVSS
22 | 5.19 nM | anti-CD22 heavy chain-only antibody Clone ID 335201 (antibody, V domains shown) VH: QLQLQESGPGLVKPSETLSLTCTVSGDSISSGDYYWGWIRQPPGKGLEWIGHIYYSGVTYYNPSLKNRVTISVDTSRNQFSLKLSSVTAADTAVYYCTREDSSNWRSRGQGTLVTVSS
23 | 3.77 nM | anti-CD22 heavy chain-only antibody Clone ID 335151 (antibody, V domains shown) VH: QLQLQESGPGLVKPSETLSLTCTVSGDSISSGDYYWGWIRQPPGKGLEWIGHIYYSGATYYNPSLKNRVTISVDTSRNQFSLNLSSVTAADTAVYYCTRDDSSNWRSRGQGTLVTVSS
24 | 8.43 nM | anti-CD22 heavy chain-only antibody Clone ID 335185 (antibody, V domains shown) VH: QLQLQESGPGLVKPSETLSLTCTVSGDSISSGDYYWGWIRQPPGKGLEWIGHIYYSGATYYNPSLKNRVTISVDTSRNQFSLNLSSVTAADTAVYYCTREDSSNWRSRGQGTLVTVSS
25 | 12.5 nM | anti-CD22 heavy chain-only antibody Clone ID 324508 (antibody, V domains shown) VH: QLQLQESGPGLVKPSETLSLTCTVSGGSISSGDYYWGWIRQPPGKGLEWIGHIYYSGATYYNPSLENRVTISVDTSKNQFSLKLSSVTAADTAVYYCTRDDSSNWRSRGQGTLVTVSS

Target: T1, human CD22
Assay: BLI
Remark: another data set of the same source
Outline: as §1

Row | Kd | Binder
26 | 84.5 nM | anti-CD22 heavy chain-only antibody Clone ID 335171 (antibody, V domains shown) VH: QLQLQESGPGLVKPSETLSLTCTVSGGSISSSSYYWGWIRQPPGKGLEWIGSIYYSGATYYNPSLKNRVTISVDTSRNQFSLNLSSVTAADTAVYYCTRDDSSNWRSRGQGTLVTVSS
27 | 2580 nM | anti-CD22 heavy chain-only antibody Clone ID 335263 (antibody, V domains shown) VH: QLQLQESGPGLVKPSETLSLTCTVSGGSINDNSHYWGWIRQPPGKGLEWIGHIYYSGATYYNPSLKNRVTISVDTSRNQFSLNLSSVTAADTAVYYCTREDSSSWRSRGQGTLVTVSS
28 | 24.6 nM | anti-CD22 heavy chain-only antibody Clone ID 335232 (antibody, V domains shown) VH: QLQLQESGPGLVKPSETLSLTCTVSGDSISSGDYYWGWIRQPPGKGLEWIGHIYYSGATYYNPSLKNRVTISVDTSRNQSSLNLSSVTAADTAVYYCTREDSSNWRSRGQGTLVTVSS
